Our source for the stoichiometry N values is doi:10.64898/2025.12.16.694761.

For this assay, the target named is Nitrous oxide reductase NosZ (clade I) of Trinickia sp. Z7 (Trinickia sp. Z7). Description: cryo-EM structure.

Usually stoichiometry N stands for a count of units in the complex or per binding partner. The substance “Nitrous oxide reductase NosZ (clade I) of Trinickia sp. Z7 (enzyme)” returned a stoichiometry N of 2.
